For this data set, the target named is T1, FucR (Cj0480c), IclR-type regulator (Campylobacter jejuni NCTC 11168) (UniProt Q0PB33).
T1 sequence: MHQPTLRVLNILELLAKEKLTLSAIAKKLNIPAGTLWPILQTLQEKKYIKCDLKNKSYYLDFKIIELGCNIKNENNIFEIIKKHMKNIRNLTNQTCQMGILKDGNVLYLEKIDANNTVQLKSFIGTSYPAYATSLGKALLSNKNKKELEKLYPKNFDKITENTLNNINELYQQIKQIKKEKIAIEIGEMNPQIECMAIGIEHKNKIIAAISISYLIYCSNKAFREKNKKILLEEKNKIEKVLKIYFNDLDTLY
As to the kind of experiment: EMSA. To be noted: 50 mM Tris-HCl, 150 mM KCl, 10 mM MgCl2, pH 7.4, room temperature, 1 h; 4-20% gradient PAGE. A general note: In EMSA bound probe runs differently from free probe, usually more slowly.

Binding data for one sequence are collected here from paper PMC12566272.

“GCTGATGCATATTGTCTTTATCCTTATTTTATTTTTATAAATTTTAGCATATTTTTTACTTTTAGTAACATAAAATCATAATTTTTATTATTTATTAATTTTAATATTTTTTTTGTAAAAATTGGCAGTTAATAAGAATAAAATACGAATTTTTACCAAGTTAACAGCTTGATTTTTTTACAAATATTTTGTTATATTTTTTGTATATAAATATATTTTTGTATATACGAAAGGAAAAAAATGGGAATTTTAAAAGGAACTTTACCGGCTTTACTTAC (double strand) [PR2 (fucose operon) promoter fragment]”: the binding result is “binds”.
